# Assay results from the domain aggregation screens of Martell et al. (2025).
# Experiment: soluble fraction after stress (log2 fold change); higher = more stays soluble; pooled small domains, quantitative proteomics
# Details: stress: pH 4
# Method in brief: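 Pooled custom libraries of small protein domains were stressed at pH 4 and then measured by high-throughput quantitative proteomics. The fold change in the amount of each domain that stays soluble after the acid stress serves as a measure of aggregation propensity. Fold changes are given on a log2 scale, and higher values mean more of the domain stayed soluble.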
row,Sequence,soluble fraction (log2)
1,HMRASVTYVVQVNGKLRGKLEVAPDIDPEELKKLALEVENVKHSLQGWTVKKVIVIPGKMVSIAAGK,-0.296
2,HMRAVEGKRLKRLLRTNLIAIERDQILQYPLRKRPLAIVTRAVRATNPDAVIVNDAGDDVFARALDVLLAS,-1.23
3,HMRDAKSQLQEALQKSGRLPEYELVSVEGPPHAPVFTYRVRIDGAVVGEGQGASKQAAQQAAAQSALKSG,0.22
4,HMRDDAIQQGREIVERELHRLDLAYTTLTDVLAKLEYEKLDDLYAAVGFGIRSPHSVAAAALQVERDKA,-1.19
5,HMRDGHEQLQGVLSAIKFHQANFLIGVLDDGTTVKGNMLSPQVGLEYTFRGRRERHPRWGEQFAFMDYRV,-1.82
6,HMRDIGKNIRYYREKKGYSQEQLAQLLFVTRQTVSNYETSRSRPDVETLVKLAGLLDIDVTDLIYGPR,0.0792
7,HMRDKSITFSEFVKLLDEGQIQKVTLTGNEILGTQKSGDKFRTYAPPQYEGLGNKLVERSVEVTAKE,0.188
8,HMRDLVTYVVQVNGKLRGKLEVSPSTDDNSLKTMALELENVQRALEGLSVKKVIVIPGKMVSIAAG,-0.355
9,HMRDVVVVPDLSGLTQMEALSKLDAESLNIGEINYGVSEMPEGVIFKQDPVYGTELMKGDTVDIFISGR,-0.709
10,HMRDYKTHLQEVLQSKGEVNIWYKLIDEKGPDHNKKFVMQVGIDSKILGFGEGKSKKEAEQVAARKALDNI,-0.317
11,HMREGIQLGDPVRVIRDPLFGKIGAVSGLPSELRAIPTESEVRVLEVRFPDGTTTVVPRANIEVIEG,-0.229
12,HMREIEVNYAAGDSVRVIDGPLAGFIGVVSSVEPDKNKVNVTVSMFGRETPVELELDQVETLD,-0.669
13,HMREISSDELHSLFSADQRGDLVINETTRLSIEKLYALHTPEEREAKVNELSGVLPSEAHRQLVHFLDYFD,-1.54
14,HMREITVEELYELEGIRIVGTIPGISAWVAESGRQMVFLVGQKVKGHDLLEVGESRVVLRKGDSVVNVLL,-1.21
15,HMREKPRETFQRIAEKVGQTLRKGPVRVQQMDLLFSESREQVMEVLRAMAESGEIRIQDDTLHWNGHT,0.193
16,HMRELPKRPEIRYAAGDRVFHKAFGNGLVKQVAQTAGGARVTVDFGEGKGVKTFAGDAPMIKI,0.326
17,HMRELSDFEKLLFTTTLERKMINLAMLLTRSNKADSKDLIQDSYLKAIENQVQFNGNNIDAWVITILKNTF,-0.361
18,HMRENAARNRNVNLDIGETLRVDAWSPERRARVQYRGAAWDVELAPNAPATVGEFRIVEVRGNVLVVTP,-0.0451
19,HMREPIPVPSRPIRAGDLVEIPGTNRPAEVTAVKGDRLVLKAGVLSMTVKNDEVRLIEDDERAAM,0.208

row,Sequence,soluble fraction (log2)
1,HMREQAHEVAGKLGYPVMVKASAGGGGKGIRIVRTEDELDQAFEAAQSETKAAFGDDQMYMEKVI,-0.176
2,HMRESDQSTVELSLERTIQEALMVNPRTSSVEEFSFEWGTGRVKVSFIVYSVDGEPFTVDSIIE,-1.19
3,HMREVEAPRDLLAALGERPGALDAWKALSFTHQREYVEAIEDARKPETRERRIANAVKMVAERS,0.111
4,HMREVPHGEYEVKIEKLELVESKAGDPMVTVWFKVLAGDYKGSMIFMNQVITKGFQIHIMNEFLR,-1.1
5,HMREYEKAVDYVRRMISSGSLNVGDRLPTERELSLELDISRNSTREAMRMLENMGIIVSRHGSGNYISGN,-0.222
6,HMRFDADELQKAYDLFDADENTPFKTIKQAYYALARRHHPDKNGDQEYFKVINNAFQLIQEHRRRRDN,-0.412
7,HMRFGNHHVYRTLMVLSDQKRKGRKQIADAVGIGEGSMRTIIEYLRGLDMIDIRQTGVKITRHGNAFL,0.138
8,HMRGAARRDRAVGERAVSKDTILDATRALLRKGSALEIRAIDIAEESGLSRQTVFQYYPVIRLIFFELSD,0.155
9,HMRGETSYANDIIKRLKQANLIVVEGTLYPLLNRLKKDGLLHYEWRESQQGPPRKYYGLTEEGEA,0.0328
10,HMRGFGEVGQLPSGRYRARYTGPDGGRHSAPITFVARIDAEGWLVDQERMISRGEWEPPARQ,-0.384
11,HMRGFGYVRRLPSKRYQASYAGPDLQRHVAPTTFTTKADAESWLGAERKVVESGSWRPPAVREAEARLS,0.412
12,HMRGLIEPLSQRELEVLMLMARGQSNAHIADQLNISENTIKWHGRNIFGKLGVSNRTEAVITSQEMGMLAT,-0.711
13,HMRGRFGNAAPARNLGDHPQGGAINVKAGRYGPYVSWGKVNATLPKDSDPEKVTLEEAVALIAAKQSGQG,0.218
14,HMRGVDRPLTLPRHWRRNAGRLVKVTLANGSAVTGRVLDPGEERVTLEVSGERHEVAYADVKKALVQVEF,-0.32
15,HMRHLSVPNRQVEGALDHIRSQGWLAEGMRVFASEDGSARLIPLGPGAPLEMLEPLAKFDVISHEGKPY,-0.771
16,HMRHSLAAALTELRRLAALDLGDFFRFEYVSHTDSLGGKQQAYTEGIRVSFGVYLGVNKKDRLNVDPVV,-2.38
17,HMRHTRQRQAVLDALVRSGQALSPQDLLGQAKSAVPSLNLSTVYRQIKGLQDAGQIVRVELPGQPPRFEM,-0.0347
18,HMRIAQYRQIENDLLEQINLGYYKKGDLIPTELELSATYHVSRVTVRKATDNLVAKGILQRVAGVGTFVSR,0.0958
19,HMRIATVTPIEEDQASDRVVAVYNDIKSTKQIDFIPNFWKVIAVNPDLLEQVWGQLKTLMHPEEVG,-0.948
